This is an account of results in patent US20260242515A1 (DUALITY BIOLOGICS SHANGHAI, published 2026).

Test [1] addresses T1, ADAM9 on human tumor cells (LS174T, HepG2, Calu-3, Colo205) (human, UniProt Q13443 29-819).
T1 sequence (looked up): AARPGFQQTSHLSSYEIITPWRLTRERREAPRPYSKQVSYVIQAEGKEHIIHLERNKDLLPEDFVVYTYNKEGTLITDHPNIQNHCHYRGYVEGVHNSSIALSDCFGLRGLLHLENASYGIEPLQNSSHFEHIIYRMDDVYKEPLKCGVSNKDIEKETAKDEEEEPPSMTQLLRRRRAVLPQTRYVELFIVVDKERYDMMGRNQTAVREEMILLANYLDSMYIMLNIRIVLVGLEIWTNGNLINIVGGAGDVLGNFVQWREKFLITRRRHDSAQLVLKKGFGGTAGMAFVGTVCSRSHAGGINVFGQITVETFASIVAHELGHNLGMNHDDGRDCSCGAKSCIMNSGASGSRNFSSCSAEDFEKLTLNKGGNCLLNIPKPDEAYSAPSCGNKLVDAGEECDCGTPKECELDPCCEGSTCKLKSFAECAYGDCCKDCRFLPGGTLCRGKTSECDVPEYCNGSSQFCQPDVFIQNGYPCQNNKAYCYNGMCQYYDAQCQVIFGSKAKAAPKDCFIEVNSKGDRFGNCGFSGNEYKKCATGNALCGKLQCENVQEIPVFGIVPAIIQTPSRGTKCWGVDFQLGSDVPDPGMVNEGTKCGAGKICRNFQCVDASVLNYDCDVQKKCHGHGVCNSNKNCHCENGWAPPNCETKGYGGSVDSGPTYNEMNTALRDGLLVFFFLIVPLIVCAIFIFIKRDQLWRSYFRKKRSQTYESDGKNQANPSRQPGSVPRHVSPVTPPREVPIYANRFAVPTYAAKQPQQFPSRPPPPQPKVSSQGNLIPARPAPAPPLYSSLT
In words: cell-based or functional assay.

For test [2], the target named is T2, Human ADAM9 protein (ACROBiosystems, Cat. No. AD9-H52H7) (human, UniProt Q13443 29-697).
T2 construct: Bought protein; also called Human ADAM-His protein; human ADAM9 antigen; not shown: His tag
T2 sequence (looked up): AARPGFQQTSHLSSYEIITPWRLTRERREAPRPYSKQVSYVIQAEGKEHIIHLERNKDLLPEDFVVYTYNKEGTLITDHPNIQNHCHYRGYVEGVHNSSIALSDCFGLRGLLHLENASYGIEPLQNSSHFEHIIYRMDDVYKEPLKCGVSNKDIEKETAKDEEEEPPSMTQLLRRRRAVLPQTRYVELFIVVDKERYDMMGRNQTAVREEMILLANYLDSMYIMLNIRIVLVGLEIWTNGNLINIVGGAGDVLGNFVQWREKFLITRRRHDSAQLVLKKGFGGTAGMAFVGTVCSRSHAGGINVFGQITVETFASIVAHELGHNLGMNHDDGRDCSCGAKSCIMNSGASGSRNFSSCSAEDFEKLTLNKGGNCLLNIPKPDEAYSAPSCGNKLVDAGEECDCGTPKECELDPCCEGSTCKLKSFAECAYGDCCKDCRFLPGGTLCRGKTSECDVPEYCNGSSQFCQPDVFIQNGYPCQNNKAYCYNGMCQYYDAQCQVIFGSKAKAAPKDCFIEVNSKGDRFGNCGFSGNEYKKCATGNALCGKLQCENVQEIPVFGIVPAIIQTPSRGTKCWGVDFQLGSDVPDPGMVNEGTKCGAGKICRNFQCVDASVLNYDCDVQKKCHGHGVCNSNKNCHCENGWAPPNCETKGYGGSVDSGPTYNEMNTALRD
The test is described as follows: indirect ELISA, human ADAM9-His coated at 1 ug/mL. The procedure: The plate was washed three times with PBST (PBS (pH 7.4) containing 0.05% Tween-20), followed by addition of 200 μL/well of blocking buffer containing 1% bovine serum albumin (BSA) diluted in PBST, and incubated at 37° C. for 1 hour for blocking. After blocking, the blocking buffer was discarded, and the plate was washed once with PBST buffer. The test antibody was diluted in PBST containing 1% BSA with a 3-fold serial dilution starting at 15 μg/mL across 11 doses, and added to the ELISA plate at 100 μL/well, followed by incubation at 37° C. for 1 hour. After incubation, the plate was washed three times with PBST, followed by addition of 100 μL/well of HRP-labeled goat anti-human secondary antibody (Rockland, Cat. No. 609-103-123) diluted in PBST containing 1% BSA, and incubated at room temperature for 45 minutes. The plate was washed six times with PBST, followed by addition of 100 μL/well of TMB chromogenic substrate (Suzhou Yacoo Chemical Reagent Co., Ltd., Cat. No. S0025), and incubated at room temperature in the dark for 10 minutes. The reaction was terminated by adding 50 μL/well of 1 M HCl, and the absorbance was measured at 450 nm using a microplate reader (Thermo, Ascent) for data analysis.
In general terms: ELISA stands for enzyme-linked immunosorbent assay.

For test [3], the target named is T2, Human ADAM9 protein (ACROBiosystems, …). In words: SPR (Biacore 8K), antibody captured by anti-human Fc on CM5, ADAM9 as analyte. The procedure: Chip preparation: The mouse anti-human IgG (Fc) antibody (Cat. No. 29234600, Cytiva) was diluted to 25 μg/mL in immobilization buffer (10 mM sodium acetate, pH 5.0), specifically by adding 950 μL of the immobilization buffer to 50 μL of the mouse anti-human IgG (Fc) antibody. The dilution was used for immobilization in eight channels. First, the surface of the CM5 chip was activated with 400 mM EDC and 100 mM NHS at a flow rate of 10 μL/min for 420 seconds. Then, 25 μg/mL of the mouse anti-human IgG (Fc) antibody was injected into the test channels at a flow rate of 10 μL/min for approximately 360 seconds, with the level of immobilization at approximately 7000 to 14000 RU. Finally, the chip was blocked with 1 M ethanolamine at a flow rate of 10 μL/min for 420 seconds. The reference channels underwent the same procedures as the test channels.
Ligand capture: Antibodies Ab10, Ab15, Ab16, and hMAB-A (2I.2) were diluted to 4 μg/mL in running buffer (containing 10 mM N-(2-hydroxyethyl)piperazine-N-2-ethanesulfonic acid (HEPES), 150 mM sodium chloride (NaCl), 3 mM ethylenediaminetetraacetic acid (EDTA), 0.005% Tween-20, pH adjusted to 7.4) and injected into the test channels for human IgG (Fc) capture at a flow rate of 10 μL/min at approximately 200 RU. No ligand capture was performed in the reference channels.
Analyte multi-cycle analysis: Human and cynomolgus ADAM9 proteins (human ADAM9 protein purchased from ACRO, Cat. No. AD9-H52H7; monkey ADAM9 protein purchased from ACRO, Cat. No. AD9-C52H7) were diluted 2-fold in running buffer (Table 10). The diluted human or cynomolgus ADAM9 protein was sequentially injected into the test channels and the reference channels at a flow rate of 30 μL/min, with corresponding association and dissociation times. Both the association and dissociation steps were performed in the running buffer. After each concentration analysis, the chip was regenerated with 3 M magnesium chloride at a flow rate of 20 μL/min for 30 seconds to wash away the ligand and any undissociated analyte. For the next concentration analysis, the test channels required re-capture of the same amount of ligand.
Background: Surface plasmon resonance follows binding to a sensor surface in real time, without labels.

The target in test [4] is T1, ADAM9 on human tumor cells (LS174T, …). The test is described as follows: cell-based or functional assay. This is another data set of the same source.

B1: Ab10 (antibody, human IgG1, kappa, V domains shown)
VH: QVQLQESGAELKRPGSSVKVSCKASGFTFPLYWMNWVRQRPGRGLEWMGRIIPIFGHTKYNEKFKDRATLTADESSSTAYMELSSLRSDDSAVYYCARGGYYYYPREGFLDYWGQGTSVTVSS
VL: DIVMTQSPASLSVSPGERASISCRSSQSVDYSGDSYMNWYQQKPGQSPRLLIYAASDRESGVPARFSGSKSGTDFTLKINRVEEEDAGTYYCQQSREDPFTFGQGTRVEIKR
notes: also called Ab10-V (variable regions)
By EC50 is commonly meant the midpoint of the concentration-response curve. Low values mean greater potency, high ones weaker potency. As a reminder, the Kd is the constant that tells how readily two partners part at equilibrium. A lower Kd goes with tighter binding. For orientation: koff means the rate constant with which the complex falls apart. For orientation: kon means the second-order rate constant of association. Consider B1, for which, in test [1], the EC50 for internalization is 0.16 nM and the “Maximum internalization rate (%)” value came to 81.3%. Further, in test [2], the EC50 was 0.059 nM and the “Top (OD450)” value is 3.4 OD450. For the same molecule, in test [3], the Kd was 17.5 nM, the off-rate (koff) turned out to be 0.00255 s⁻¹ and the kon was 146000 M⁻¹ s⁻¹.

B2: Ab16-X2 (antibody, human IgG1, kappa, V domains shown)
VH: QVQLQQPGTEVVKPGASVKLSCKASGFTFPLYWMHWVRQRPGRGLEWIGRIIPIFGHTKYNEKFKNKATLTADESSSTAYMELRSLTSDDSAVYYCARGGYYYYPREGFLDYWGQGTSVTVSS
VL: DIVMTQSPASLSVSPGERASISCRSSQSVDYSGDSYMNWYQQKPGQSPRLLIYAASDRESGVPDRFSGSGSGTDFTLKISRVEEEDAGTYYCQQSREDPFTFGQGTKVDIKR
modifications: linker-payload X2 (camptothecin type) conjugated after TCEP reduction; DAR p=7.9 per antibody; sites not stated
As for B2, in test [4], the “IC50 (nM), proliferation inhibition of Calu-3 cells (CTG, 6 days)” value amounted to 3.83 nM; the “IC50 (nM), proliferation inhibition of Colo205 cells (CTG, 6 days)” value was 29.8 nM; the “IC50 (nM), proliferation inhibition of LS174T cells (CTG, 6 days)” value was found to be 8.97 nM.

B3: Ab1 (antibody, human IgG1, kappa, V domains shown)
VH: QVQLQESGAEVKRPGSSVKVSCKASGFTFPLYWMNWVRQRPGQGLEWMGRIIPIFGHTDYNEKFKDRATITRDESSNTAYMELSRLRSEDSAVYYCARGGYYYYPREGFLDYWGQGTSVTVSS
VL: DIVMTQSPASLSVSPGERASISCRSSQSVDYSGDSYMNWYQQKPGQSPRLLIYAASDRESGVPDRFSGSGSGTDFTLKISRVEEEDAGTYYCQQSREDPFTFGQGTKVDIKR
notes: also called Ab01; Ab1-V (variable regions)
On to B3, for which, in test [2], the midpoint of the response, the EC50, lay at 0.052 nM and the “Top (OD450)” value was 3.12 OD450.

B4: Ab15-X2 (antibody, human IgG1, kappa, V domains shown)
VH: QVQLQQPGAELKKPGASVKVSCKASGFTFPLYWMNWVRQRPGRGLEWIGRIIPIFGHTKYNEKFKDRATMTADESSSTAYMELSSLTSEDSAVYYCARGGYYYYPREGFLDYWGQGTSVTVSS
VL: DIVMTQSPDSLSVSPGERATINCRSSQSVDYSGDSYMNWYQQKPGQSPRLLIYAASDRESGVPDRFSGSGSGTDFTLKISNVEEEDAATYYCQQSREDPFTFGQGTRVEIKR
modifications: linker-payload X2 (camptothecin type) conjugated after TCEP reduction; DAR p=7.8 per antibody; sites not stated
Consider B4, for which, in test [4], the “IC50 (nM), proliferation inhibition of Colo205 cells (CTG, 6 days)” value is 28.5 nM and the “IC50 (nM), proliferation inhibition of LS174T cells (CTG, 6 days)” value worked out at 11.6 nM.

B5: Ab16-X1 (antibody, human IgG1, kappa, V domains shown)
VH: QVQLQQPGTEVVKPGASVKLSCKASGFTFPLYWMHWVRQRPGRGLEWIGRIIPIFGHTKYNEKFKNKATLTADESSSTAYMELRSLTSDDSAVYYCARGGYYYYPREGFLDYWGQGTSVTVSS
VL: DIVMTQSPASLSVSPGERASISCRSSQSVDYSGDSYMNWYQQKPGQSPRLLIYAASDRESGVPDRFSGSGSGTDFTLKISRVEEEDAGTYYCQQSREDPFTFGQGTKVDIKR
modifications: linker-payload X1 (camptothecin type) conjugated after TCEP reduction; DAR p=7.8 per antibody; sites not stated
As to B5, the “IC50 (nM), proliferation inhibition of Calu-3 cells (CTG, 6 days)” value in test [4] was 8.6 nM.

B6: Ab4 (antibody, human IgG1, kappa, V domains shown)
VH: QVQLQESGAEVKRPGSSVKVSCKASGFTFPLYWMNWVRQRPGRGLEWMGRIIPIFGHTKYNEKFKDRATMTRDKSSSTAYMELSSLTSDDSAVYYCARGGYYYYPREGFLDYWGQGTSVTVSS
VL: DIVMTQSPSSLSVSPGERATINCRSSQSVDYSGDSYMNWYQQKPGQAPRLLIYAASDLESGVPDRFSGSGSGTDFTLNINGVEEEDAATYYCQQSREDPFTFGQGTKVEIKR
notes: also called Ab04; Ab4-V (variable regions)
Consider B6, for which, in test [2], the EC50 is 0.055 nM and the “Top (OD450)” value was found to be 3.06 OD450.

B7: Ab7 (antibody, human IgG1, kappa, V domains shown)
VH: QVQLQESGAEVKRPGSSVKVSCKASGFTFPLYWMNWVRQRPGQGLEWMGRIIPIFGHTDYNEKFKDRATITRDESSNTAYMELSRLRSEDSAVYYCARGGYYYYPREGFLDYWGQGTSVTVSS
VL: DIVMTQSPASLSVSPGERASINCRSDQSVDYSGDSYMNWYQQKPGKSPRLLIYAASDRESGVPDRFSGSGSGTDFTLNINSVEEEDAGTYYCQQSREDPFTFGQGTRVDIKR
notes: also called Ab07; Ab7-V (variable regions)
Consider B7, for which, in test [2], a half-maximal response (EC50) required 0.06 nM and the “Top (OD450)” value is 3.31 OD450.
